From US11466066B2, “Variants of human BMP7 protein” (ELI LILLY AND COMPANY, priority 2017, dated 2022)
Where a chain is given by its changes, count along the chain named. Numbers in names are those of the source.

B1: Y65G/I86L/N110G/Y128W: human mature BMP7 protein variant, SEQ ID NO: 7 (protein)
chain: STGSKQRSQNRSKTPKNQEALRMANVAENSSSDQRQACKKHELYVSFRDLGWQDWIIAPEGYAAGYCEGECAFPLNSYMNATNHALVQTLVHFINPETVPKPCCAPTQLGAISVLYFDDSSNVILKKWRNMVVRACGCH
B2: Y65G/I86L/N110G: human mature BMP7 protein variant, SEQ ID NO: 10 (protein)
chain: B1 chain with W128Y
B3: Y65G/I86L/N110G/Y128F: human mature BMP7 protein variant, SEQ ID NO: 6 (protein)
chain: B1 chain with W128F
B4: F93V/N110G: human mature BMP7 protein variant F93V/N110G, SEQ ID NO: 4 (protein)
chain: B1 chain with G65Y, L86I, F93V, W128Y
B5: Y65G/I86L/T89A/N110G: human mature BMP7 protein variant, SEQ ID NO: 5 (protein)
chain: B1 chain with T89A, W128Y
B6: Y65G/V114M: human mature BMP7 protein variant, SEQ ID NO: 11 (protein)
chain: B1 chain with L86I, G110N, V114M, W128Y
B7: Y65G/T89A/N110G/Y128F: human mature BMP7 protein variant, SEQ ID NO: 9 (protein)
chain: B1 chain with L86I, T89A, W128F
B8: V91M: SEQ ID NO: 2 having the single amino acid mutation V91M (protein, listed as Homo sapiens)
chain: B1 chain with G65Y, L86I, V91M, G110N, W128Y
B9: V114M: SEQ ID NO: 2 having the single amino acid mutation V114M (protein, listed as Homo sapiens)
chain: B1 chain with G65Y, L86I, G110N, V114M, W128Y
B10: N110G: SEQ ID NO: 2 having the single amino acid mutation N110G (protein, listed as Homo sapiens)
chain: B1 chain with G65Y, L86I, W128Y
B11: D33M: SEQ ID NO: 2 having the single amino acid mutation D33M (protein, listed as Homo sapiens)
chain: B1 chain with D33M, G65Y, L86I, G110N, W128Y
B12: I94F: SEQ ID NO: 2 having the single amino acid mutation I94F (protein, listed as Homo sapiens)
chain: B1 chain with G65Y, L86I, I94F, G110N, W128Y
B13: F93V: SEQ ID NO: 2 having the single amino acid mutation F93V (protein, listed as Homo sapiens)
chain: B1 chain with G65Y, L86I, F93V, G110N, W128Y
B14: E60Q: SEQ ID NO: 2 having the single amino acid mutation E60Q (protein, listed as Homo sapiens)
chain: B1 chain with E60Q, G65Y, L86I, G110N, W128Y
B15: A37P: SEQ ID NO: 2 having the single amino acid mutation A37P (protein, listed as Homo sapiens)
chain: B1 chain with A37P, G65Y, L86I, G110N, W128Y
B16: I86L: SEQ ID NO: 2 having the single amino acid mutation I86L (protein, listed as Homo sapiens)
chain: B1 chain with G65Y, G110N, W128Y
B17: T89A: SEQ ID NO: 2 having the single amino acid mutation T89A (protein, listed as Homo sapiens)
chain: B1 chain with G65Y, L86I, T89A, G110N, W128Y
B18: I86V: SEQ ID NO: 2 having the single amino acid mutation I86V (protein, listed as Homo sapiens)
chain: B1 chain with G65Y, L86V, G110N, W128Y
B19: Y65G: SEQ ID NO: 2 having the single amino acid mutation Y65G (protein, listed as Homo sapiens)
chain: B1 chain with L86I, G110N, W128Y
B20: human BMP7 protein: wild type human BMP7 protein of Example 2; pro or mature form not stated (protein, UniProt P18075 293-431, looked up)
Bone morphogenetic protein 7: B1 chain with G65Y, L86I, G110N, W128Y

Test system: female CB17SC-M SCID mice
Assay: Ectopic bone formation model
Format: in vivo
Settings: 3 μg/100 μl subcutaneous; CT scan on Day 13
Experimental: Ectopic bone formation (EBF) may be measured in female CB17SC-M SCID mice upon subcutaneous administration of certain human BMP7 protein variants of the present invention compared to wild type human mature BMP7.
Briefly described, the mice may be anesthetized with 3% isoflurane and are injected with 3 μg/100 μl of the human BMP7 protein variant, wild type human mature BMP7 protein or a vehicle control on the back left flank. The back right flank of each mouse may serve as a control (no injection). Vehicle (pH 4.5): 0.5% Sucrose, 2.5% Glycine, 5 mM L-Glutamic Acid, 5 mM NaCl, 0.01% polysorbate 80, and, 0.1% BSA.
EBF may be measured by a CT scan on Day 13 after injection of the human BMP7 protein variant or wild type human mature BMP7 protein.

Molecule	Ectopic Bone Formation Volume
B1	11 mm^3

Test system: MFc7 mouse renal myofibroblasts
Assay: MFc7 bioassay
Format: cell-based
Settings: EC50 of wild type BMP7 protein/EC50 of the variant; multiple amino acid changes (Table 3)
Experimental: MFc7 mouse renal myofibroblasts (mouse kidney fibroblast cell line) may be maintained under routine cell culture conditions in OPTI-MEM/10% FBS medium. The cells may be plated in 10 cm tissue culture plates at a seeding density of 500,000 cells/plate. After approximately 48 hours, the cells may be washed with phosphate buffered saline (PBS) prior to the addition of OPTI-MEM/2% dialyzed fetal bovine serum (FBS) medium containing 1 μg/ml BMP7 protein or 1 μg/ml of a BMP7 protein variant and incubated for 48 hours. After treatment the cells may be rinsed with PBS and stored at −80° C. for 20 minutes. After thawing the cells at 37° C. for 30 minutes 100 μl of para-nitrophenyl phosphate (PNPP) may be added. The plate may be incubated at 37° C. for 1 hour. The absorbance at 405 nm may be read utilizing a plate reader. The average relative potency (EC50 of wild type BMP7 protein/EC50 of the BMP7 protein variant) of certain human BMP7 protein variants of the present invention may be calculated based on such readings.

Molecule	Average Relative Potency
B2	8.7
B3	7
B4	9
B5	10
B1	16
B6	5.0
B7	6.2

Same assay, conditions: EC50 of wild type BMP7 protein/EC50 of the variant; single amino acid change (Table 4)

Molecule	Average Relative Potency
B8	3.3
B9	9.4
B10	1.7
B11	3.3
B12	7.5
B13	16
B14	5.5
B15	7.5
B16	5.9
B17	3
B18	17.4
B19	1.3

Test system: RAR alpha
Assay: RAR alpha protein expression, Western Blot
Format: cell-based, mouse
Settings: MFc7 and 3T3-L1 cell lines; 1 μg/mL, 48 hours; Western Blot intensity
Experimental: (§1) 3T3-L1 fibroblasts and MFc7 mouse renal myofibroblasts may be maintained under routine cell culture conditions in DMEM/10% calf serum medium or OPTI-MEM/10% FBS medium, respectively. The cells may be plated in 10 cm tissue culture plates at a seeding density of 500,000 cells/plate. After 48 hours, the cells may be washed with PBS prior to the addition of either DMEM/2% dialyzed FBS or OPTI-MEM/2% dialyzed FBS medium containing 1 μg/mL human BMP7 protein or 1 μg/mL of a human BMP7 protein variant. The cells may be incubated for 48 hours and then rinsed with ice-cold PBS, and then lysed with Protein Extraction Reagent. Then lysates may be centrifuged at 14,000×g for 15 minutes. A Bradford protein assay may be performed to determine the protein concentration of each lysate. Equivalent amounts of protein (for example, 25 μg) may be resolved by SDS-PAGE and then transferred to nitrocellulose membranes for Western Blot analysis. The membranes may be probed with an anti-RAR alpha antibody and/or an anti-RAR gamma antibody.

Molecule	RAR alpha protein expression
B20	stimulated

Test system: not listed separately
Assay: Thermal unfolding assay (circular dichroism)
Format: physicochemical
Settings: CD at 208 nm; 10 mM citrate, 300 mM NaCl, pH 7.4
Experimental: The effect of temperature on the conformational stability of human BMP7 protein variants may be followed by circular dichroism (CD) on a Jasco J-810 instrument equipped with a thermoelectric sample compartment. Briefly stated, 0.2-1.0 mg/mL pro-BMP7 may be formulated in storage buffer (10 mM citrate, 300 mM NaCl, pH 7.4) and loaded into a 0.02 cm path-length CD cuvette. The sample may be heated from 20 to 80° C. at a linear rate of 1° C./minute and the resulting CD signal at 208 nm may be recorded every 0.2° C. using a 1 second signal response time. A non-linear fit to equation 1 may be performed by the program JMP (SAS Institute Inc, Cary, N.C.) to obtain the thermal unfolding mid-point (Tm).
[formula] where, Yu and Yf are fit and represent the Y-intercept of the pre- and post-transition baselines, respectively. Mu and Mf are fit and represent the slope of the pre- and post-transition baselines, respectively. Hm and S are fit and represent enthalpy and entropy, respectively. T is the measured temperature in Kelvin units.

Molecule	thermal unfolding mid-point (Tm)
human pro-BMP7 protein variant V114M: human pro-BMP7 protein variant with V114M in the mature domain	64.5 °C

Test system: RAR gamma
Assay: RAR gamma protein expression, Western Blot
Format: cell-based, mouse
Settings: MFc7 and 3T3-L1 cell lines; 1 μg/mL, 48 hours; Western Blot intensity
Experimental: as §1

Molecule	RAR gamma protein expression
B20	stimulated
